# From paper PMC11203801
# Legend:
# Details in all cases: remark: other sources report otherwise
# [1] = biological target: human HSP60 (60-kDa Heat Shock Protein) (human), P10809; experiment: native gel or EMSA; HSP60 and HSP10 mixed at the same molar ratio, PBS or Mizoribine below 10 mM (1, 5 mM); Native/PAGE gradient gel, Coomassie stain
# [2] = biological target: human HSP60 (60-kDa Heat Shock Protein) (human), P10809; experiment: negative-stain transmission electron microscopy; HSP60 and HSP10 (0.1 mM) incubated for 10 min with 10 mM Mizoribine, treated with 2% uranyl acetate; particles classified and counted
# [3] = biological target: human HSP60 (60-kDa Heat Shock Protein) (human), P10809; experiment: negative-stain transmission electron microscopy; HSP60 and HSP10 (0.1 mM) incubated for 10 min in the absence of Mizoribine, treated with 2% uranyl acetate; particles classified and counted
# [4] = biological target: human HSP60 (60-kDa Heat Shock Protein) (human), P10809; experiment: native gel or EMSA; purified HSP60 and HSP10 each run on Native-PAGE (5-12% gradient gel by the legend; Blue NativePAGE 3-12% Bis-Tris by the methods), in the absence of ATP, Coomassie stain
binder,measurement,setting,value
"human HSP60 (60-kDa Heat Shock Protein), P10809 27-573 (natural protein) AKDVKFGADARALMLQGVDLLADAVAVTMGPKGRTVIIEQSWGSPKVTKDGVTVAKSIDLKDKYKNIGAKLVQDVANNTNEEAGDGTTTATVLARSIAKEGFEKISKGANPVEIRRGVMLAVDAVIAELKKQSKPVTTPEEIAQVATISANGDKEIGNIISDAMKKVGRKGVITVKDGKTLNDELEIIEGMKFDRGYISPYFINTSKGQKCEFQDAYVLLSEKKISSIQSIVPALEIANAHRKPLVIIAEDVDGEALSTLVLNRLKVGLQVVAVKAPGFGDNRKNQLKDMAIATGGAVFGEEGLTLNLEDVQPHDLGKVGEVIVTKDDAMLLKGKGDKAQIEKRIQEIIEQLDVTTSEYEKEKLNERLAKLSDGVAVLKVGGTSDVEVNEKKDRVTDALNATRAAVEEGIVLGGGCALLRCIPALDSLTPANEDQKIGIEIIKRTLKIPAMTIAKNAGVEGSLIVEKIMQSSSEVGYDAMAGDFVNMVEKGIIDPTKVVRTALLDAAGVASLLTTAEVVVTEIPKEEKDPGMGAMGGMGGGMGGGMF",stoichiometry N,[1],7
same,"share of observed particles as HSP60 (7) (single ring structure, no HSP10), with 10 mM Mizoribine",[2],4%
same,stoichiometry N,[3],7
same,stoichiometry N,[4],7
